From a protein production outcome set (Wang et al. 2014)

Test: label from the status in PepcDB records

Sequence | protein production
MEAFGGFVMDEQAIQVENVFLEFLKSFRLDANKPELYYEAEIEAIRGGESTMMYIDFSHVMGFNDALQKAIADEYLRFEPYLRNACKRFVIEMNPSFISDDTPNKDINVSFYNLPFTKRLRELTTAEIGKLVSVTGVVTRTSEVRPELLYGTFKCLDCGSVIKNVEQQFKYTQPTICVSPTCLNRARWALLRQESKFADWQRVRMQETSKEIPAGSLPRSLDVILRHEIVEQARAGDTVIFTGTVVVIPDISALAAPGERAECRRDSSQQKSSTAGHEGVQGLKALGVRDLSYRLAFIANSVQIADGSRNTDMRNRQNDSNEDDQQQFTAEELDEIQQMRNTPDYFNKLVGSMAPTVFGHQDIKRAVLLMLLGGVHKTTHEGINLRGDINVCIVGDPSCAKSQFLKYTAGIVPRSVYTSGKSSSAAGLTATVAKEPETGEFCIEAGALMLADNGICCIDEFDKMDIKDQVAIHEAMEQQTISITKAGIQATLNARTSILAAANPVGGRYDKSKPLKYNVNLPPAILSRFDLVYVMIDDPDEVTDYHIAHHIVRVHQKHEAALSPEFTTVQLKRYIAYAKTLKPKLSPEARKLLVESYVALRRGDTTPGTRVAYRMTVRQLEALIRLSEAIARSHLEILVKPSHVLLAVRLLKTSVISVESGDIDLSEYQDANGDNMDDTDDIENPVDGEEDQQNGAAEPASATADNGAAAQKLVISEEEYDRITQALVIRLRQHEETVNKDSSELPGIRQKELIRWFIDQQNEKKKYSSQEQVKLDIKKLRAIIESLVCKEGHLIVLANEQEEAAEAEETKKKSSQRDERILAVAPNYVIE | failed
MIDTHIHSDTRGLEDLELMAMCLDGVITLAHDPFEMKNIKVWEAHVEKLLINELERAKKVGLNLFICVGMHPRAIPPEIDEALDKIKSYINYNSRVVGIGEIGLEKATKEEKEVFIKQLLLAEELNMPAVVHTPRRNKEEVTKIILDEISTLNLKNRDIVIEHCNKETTKWVLDEEFYVGLTIQPGKLTPLEAVEIVKEYKDFADKILLNSDCSSNASDVLAVPRTVLKMKINGIEKDVIYKVAHKNAVNLFGLDI | failed
MAESQALSDDIGFLLSRVGGMVLGAVNKALVPTGLRVRSYSVLVLACEQAEGVNQRGVAATMGLDPSQIVGLVDELEERGLVVRTLDPSDRRNKLIAATEEGRRLRDDAKARVDAAHGRYFEGIPDTVVNQMRDTLQSIAFPTFVE | not failed
MRLLSSPINRGFFDYVELYPSLVSSYFPPPDRPSAVLSVGETRYVNSVKQTASLDSLNDYEEQFPPLTGGSKTKKFYLGSTNPSTPCQSSQLQNWTSGKDALSLQRNLGCKNRRRRRASRFLHEESNGTTFEVGAGIGSPTSMVHFDSTNPSSSSKSSQSQNLKIRKVRNHRNSGFKSRDQSPQRIKDPPPFDICSSVLERNDTSIKDWILADETNRETVEVSNKHKVIRPGMVLLKDFLTPDIQVDIVKTCRELGVKPTGFYQPGYSVGSKLHLQMMCLGRNWDPQTKYRKNTDIDSKAPEIPVTFNVLVEKAIREAHALIDRESGTEDAERILPVMSPDICIVNFYSETGRLGLHQDRDESEESIARGLPIVSFSIGDSAEFLYGEKRDVEEAQGVILESGDVLIFGGESRMIFHGVKSIIPNSAPMSLLNESKLRTGRLNLTFRHF | failed
MLPPYNYMDNGTLKGISIDLLEAITEKMGKKVTREEIHLVSWTEGYQAALTRNNTVLFVTARTPEREQSFKWVGPIYSDKYVLFAKRDPGVTIDGPEDLKEYRIGVISDDLEHHHHHH | failed
MMESGAGFVAMEERISPGSFFQYPLSGFRASPNRSPCPPSDRERYLTELLQERQKLGPFLQVMPNCCRLLNHEIRRVSSFPDLDRYEHGSPFRSLGQPTNGKLDLEGWSMMQAEVSHC | failed
MMYSKFISFLKQIPLPICGLILGLISLGNLLYSKGYPILGNSYDMLGLFLMFLILLKIVLAMKHTISTLNDPIVASVSPTFTMSLMVLSVFLKRLSGFSLLANVTWWTALILHLILMMYFIYLHVLPKELKIHDVYPSWFITFVGIGVISATSPDFGLEVGKVVVWITLLFYFILLPIVMHRVFILRKMHKSLLPLITIITAPGSLGLVGYLTVVEAKSKIFVIFLFILSQAIYFITLGLLTKLLRSAFYPSYAAFTFPLVISATAVNLTSKLSVFQFLNLELLANMEILIAIAIVTYVLIRYCIFLGSKLVQIMSEKYSPESI | failed
MNRARDWLEQARHNLRHAQGSLGLGDYAWACFAAQQAAEAALKGLHLARGQVAWGHSILDLLADLPEDVDVPEDLVEAAKVLDKYYIPTRYPDAHPAGPAARHYTRLEAEEALDLAQKILAFVEEKL | not failed
MDALIMAGGKGTRLKENVEKPILNICEKPMIDYVIDSLLNSKIEKIYVAVSIHTPKTKEYLEKKYRLDRNYNPKIDIICTSGTNYVDDLNECMEFFKEPFLILSSDIPTIKPKVINSIIQDYLFVNNSCNRIESFCVVTKDDDYVGTPSINMGGYIPLGINILTPKHGEQTEILHVIKDIIVNVNTLSDKKLVETLINKVVELEHHHHHH | not failed
MPDYVYGDSMVLKLTLEYSSVLLVSLICCIIAFTSTYTVMPRLINKLKEANVVGNDIHKISKPIVAEMGGIGILFGFTIGMFIGMYCFPELQYELMVTLLVILLVGIVGMVDDLVRLSSREKLFLLFLAGLPIIWVAPPKVGILYMIMMPVAVSIASNLTNMLAGLNGIESGLGSIAMTALTASCIIMGKYDVSIITMAMLGALLAFLMYNRYPSRVFPGDVGTLIIGACIASVAFIGRVKIIALIVLLPNIIDGILKFYSAGVVERHKHRPTEIAEDGKLIAPPEGFNSLIRWILRRPMTEKKVVMIVWSIGMFFGFLGVLLAFILPLDPF | failed
MKINLLQYIAGFLGFIALFYGIFSLIREYHFLEIKSLEVFVLIFFGFFAITYAFTDRIMIEKPFALTFAVILFYLSLITPLPLTNKILLITGGIIETQLASRKGVKGTVYIILGILTLIYFVYAHFINLSSILSLIGIGLSSLIIVLGNRDRKVKGISYLTYPVGIPLVVYGINGFFPLSINPIFIIVGLAIVLLNLLPSKGIPSSDYDLKLDQKLCNDIQRSECKDVIQIYKKYMVYIPQHCLDKVVLCTINQNDMQNFNLVINNSLARSVAERYVDKMSPEMLYSLALLSSRKKELLELACKKGYKKACEQTKPILDMKNWDPKVWVGKEIYNYNIVDIIGVGGTSYILKGEKDGNFYALKIPLINYLNNVMDLVGESSKLIELSNKSPYIVRLYAIYADQLDVKEILGGNPEIYYNKPPMLVIELMKGGSINDVINVKELVKSEYWKKIVFITTARIAEALETIHSEGYVHCDVKPQNVLFNEKLPPNARLAYDNLKNGKIIVKLADLGSAVKAGEKPFSYTPAYVSFDLVKSTAFGGVSPMADIYALGATVYKLLTGVTLNTNVMIEAMDKFEANKDIRYLDNSLYSTRNLDLLRKYVDKNTYLFISKMVDPDPNKRPTSKEIKEFFYFRV | failed
MDKTYILPIPNEYQNLARELSMQSGKIYSKAVSFLKKINRKGLRIKQKTFYRYMEWWIHQKSFILHSQSKQAAYQQAWTNYTATLRKIKKAKKKNKNTSKIRLPYRNKKYNKVCFKDSAIKLEGDNLILVNMKGAERIVIDNVRIGIKPKYAELLYHADKGKYYVHVVVEIAKEQEAKKRSGKTIAIDLGVIHPMVCFDGNKVVVYNGGVLNSILRYRNKKQSLLQSKISGCQKGSKRRGKLQRAKTKLLRRLSNLIRDVLGKYTSHLIGYCVENGITTIVMGDVKGIRNSKKKSNKVASQKVHQWLFRKISKMIEQKAEFAGIEVVYVKENMTSQICPVCGSKNKPLDRNYECKSCGFRYHRDGVGAVNIYRKYTGESLVVGRLACPTGVRFKSHLRCPVEWNTHPWDKNCSTGKVA | failed
MSDRFVIWAPSMHNEPAAKCGYCHGNKGGNMDQLFALDSWAHRYMNKMDVVKIENCTIGSFVEHMDVATYDRMCNMGFRRSGKFLYKVDPLRNCCRLYTIRTAPQELNMTKELKKCISRFATRITSEDYCPAAVASSDFVGKIVNAEMNSKTFYTRFEPALYSEEKYHLFVKYQEKVHQDYNNSPKSFKRFLCDTPFGPEAVLGTQESWEQLNNWQRMKPGEKLKHMGPVHECYYYEGKLIAITVSDILPSGISSVYFIWDPDYSKWSLGKLSALRDLAIIQRTNLQYYYLGYYIEDCPKMNYKANYGAEVLDVCHSKYIPLKPIQDMISRGKLFVIGEEETKVTKELYLVDSETGRGEGFPTDNVVKYKNIAEEIYGVGGCAFKSANESALELKELYGIPYEEEDLDTIYHLKEHNGHAPNGIPNVVPGLLPLWELLDIMQSGKITDLEGRLFLFEIETEGIRPLINFYSEPPNVKKRICDVIRLFGFETCMKAVILYSEQM | failed
